Results taken from patent US20220002699A1.

Target: SARS-CoV-2 spike (S) glycoprotein on live SARS-CoV-2 virus (SARS-CoV-2) (UniProt P0DTC2)
Assay: cell-based or functional assay

In the case of Neg control, the in vitro virus neutralization EC50 is reported as > 10 µg/mL.
